# Assay results: publication PMC6842167 (Retrovirology, 2019)
# B1: ibalizumab (antibody, V domains shown)
# VH: QVQLQQSGPEVVKPGASVKMSCKASGYTFTSYVIHWVRQKPGQGLDWIGYINPYNDGTDYDEKFKGKATLTSDTSTSTAYMELSSLRSEDTAVYYCAREKDNYATGAWFAYWGQGTLVTVSS
# VL: DIVMTQSPDSLAVSLGERVTMNCKSSQSLLYSTNQKNYLAWYQQKPGQSPKLLIYWASTRESGVPDRFSGSGSGTDFTLTISSVQAEDVAVYYCQQYYSYRTFGGGTKLEIK
# notes: also called iMab; parental iMab antibody; source: HEK293T, transiently transfected, purified (Protein-A, SEC); copies: + +
# Target: T1, Recombinant human two-domain CD4 (Homo sapiens)
# T1 construct: also called 2dCD4; N-terminal two domain fragment of human CD4
# Test: ELISA; decreasing concentrations of 2dCD4 immobilised directly on a 96 well plate; antibodies at 1 µg/ml; anti-human HRP secondary, absorbance at 450 nm
# Conditions: both partners purified
binder,measurement,value
B1,binding result,binds
